Holding throughout (assay): MST; labelled JIP3/4 fragment (Blue-NHS dye) constant at 20 nM, KIF5B fragment titrated 120 pM to 4 uM (up to 38.2 uM when needed); 50 mM Tris pH 8.0, 200 mM NaCl, 10 mM MgCl2, 0.05% Tween 20; room temperature; Monolith NT.115, premium capillaries, MST-on 0.5-1.5 s; 1:1 Kd fit; three replicates; the paper calls its affinities relative measurements
One test deals with JIP4-N-RH1-lz3-G40H-R41C (UniProt O60271).
Test [1] has as its target JIP3-N^JIP4-RH1-lz3 chimera (JIP3 variant incorporating the N-terminus of JIP4) (not stated | mouse).
In test [2] the target is JIP4-N^JIP3-RH1-lz3 chimera (JIP4 variant incorporating the N-terminus of JIP3) (mouse | not stated).

Sequence of KIF5B-CC3b-CC4-dt fragment (P33176 771-963): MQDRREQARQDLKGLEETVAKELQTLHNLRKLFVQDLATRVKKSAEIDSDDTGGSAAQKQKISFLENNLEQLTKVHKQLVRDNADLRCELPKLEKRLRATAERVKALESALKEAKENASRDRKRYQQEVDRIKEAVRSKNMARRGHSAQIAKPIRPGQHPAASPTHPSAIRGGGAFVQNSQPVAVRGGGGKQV
Sequence of JIP4-N-RH1-lz3-G40H-R41C (O60271 whole entry G40H/R41C): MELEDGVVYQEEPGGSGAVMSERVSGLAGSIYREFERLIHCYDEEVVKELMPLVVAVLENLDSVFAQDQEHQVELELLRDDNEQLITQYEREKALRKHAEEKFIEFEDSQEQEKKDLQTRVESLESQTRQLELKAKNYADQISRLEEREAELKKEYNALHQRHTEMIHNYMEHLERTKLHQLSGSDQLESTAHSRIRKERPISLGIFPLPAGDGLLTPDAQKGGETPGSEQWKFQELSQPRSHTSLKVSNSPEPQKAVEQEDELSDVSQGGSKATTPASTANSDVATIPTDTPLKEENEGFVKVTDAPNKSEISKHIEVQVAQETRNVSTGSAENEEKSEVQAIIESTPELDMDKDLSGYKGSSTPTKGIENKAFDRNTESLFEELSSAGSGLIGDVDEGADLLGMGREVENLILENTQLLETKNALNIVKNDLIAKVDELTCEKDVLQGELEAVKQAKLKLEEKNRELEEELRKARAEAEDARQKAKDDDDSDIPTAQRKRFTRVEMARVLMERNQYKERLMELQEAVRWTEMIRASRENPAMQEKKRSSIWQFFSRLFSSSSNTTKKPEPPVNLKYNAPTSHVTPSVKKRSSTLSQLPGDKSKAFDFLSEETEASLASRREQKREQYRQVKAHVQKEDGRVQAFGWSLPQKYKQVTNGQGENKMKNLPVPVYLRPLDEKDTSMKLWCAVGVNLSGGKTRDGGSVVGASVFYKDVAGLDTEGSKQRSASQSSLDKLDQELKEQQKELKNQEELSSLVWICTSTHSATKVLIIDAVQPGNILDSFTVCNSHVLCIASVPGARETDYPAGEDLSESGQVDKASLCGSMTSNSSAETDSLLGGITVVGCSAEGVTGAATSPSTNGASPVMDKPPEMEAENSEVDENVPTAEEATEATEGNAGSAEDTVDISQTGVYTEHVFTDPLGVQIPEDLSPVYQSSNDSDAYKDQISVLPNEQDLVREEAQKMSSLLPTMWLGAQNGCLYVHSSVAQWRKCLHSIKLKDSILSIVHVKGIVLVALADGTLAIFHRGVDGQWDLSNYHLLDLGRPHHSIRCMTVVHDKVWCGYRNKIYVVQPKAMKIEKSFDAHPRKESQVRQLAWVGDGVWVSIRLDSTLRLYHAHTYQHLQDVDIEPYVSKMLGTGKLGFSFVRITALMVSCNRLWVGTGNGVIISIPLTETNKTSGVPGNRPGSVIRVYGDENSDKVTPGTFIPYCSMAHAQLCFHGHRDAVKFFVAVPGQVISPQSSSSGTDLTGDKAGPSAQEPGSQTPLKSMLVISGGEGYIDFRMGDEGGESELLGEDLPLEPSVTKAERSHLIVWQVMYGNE

The term Kd denotes the free concentration of one partner at which half of the binding sites on the other are occupied at equilibrium, for simple one-to-one binding. On to “KIF5B-CC3b-CC4-dt fragment (from UniProt P33176 771-963) (domain or fragment)”, for which the Kd is 0.132 µM with JIP4-N-RH1-lz3-G40H-R41C, 0.0296 µM in test [1] and 0.246 µM in test [2].

The values are drawn from paper PMC13499124.
